The values that follow come from publication PMC3651167.

In the assay the target is wild-type rabbit PrP 121–230 (rabbit). Description: SEC.

wild-type rabbit PrP 121–230 (domain or fragment), sequence (Q95211 119-229 limits assumed): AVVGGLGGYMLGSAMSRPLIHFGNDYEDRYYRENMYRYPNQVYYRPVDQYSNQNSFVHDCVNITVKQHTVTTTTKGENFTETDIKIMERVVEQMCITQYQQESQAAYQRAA

The term stoichiometry N denotes the number of molecules, sites or subunits per partner or assembly. Substance “wild-type rabbit PrP 121–230 (domain or fragment)” had a percent octamer after 4 hours of 33% and a stoichiometry N of 8.
